The supplement of paper PMC10126150
± gives the standard deviation of the averaged measurements.

Test system: ATP
Experiment: switch fluorescence ratio, 500 uM ATP over buffer (Cy3 cluster intensity, sum of 5 cycles each) (fold (ratio)); higher = stronger signal-on switching upon ATP binding; sequences stand for … in TCGTCGGCAGCGTCAGATGTGTATAAGAGACAGTTTTTTTTTTTTTTTTTTTTTTTTT…TC
Conditions: aptamer strand: ATP DNA aptamer (quencher-CACCTGGGGGAGTATTGCGGAGGAAGG + anchor), 100 nM annealed; ATP concentration: 500 uM
Procedure, shortened: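 Clusters with intensities outside 100-1000 RFU were excluded. The remaining Cy3-labelled switching-strand clusters on a modified Illumina MiSeq flow-cell had been annealed to 100 nM quencher-labelled ATP aptamer and imaged in selection buffer, then after 15 min with 500 uM ATP at 22 °C, for five cycles separated by NaOH stripping and re-annealing. The fluorescence ratio, averaged per switch-domain sequence, is each cluster's summed target-cycle Cy3 intensity over its summed buffer-cycle Cy3 intensity.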
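Also: ATP exposure 15 min at 22 °C before imaging.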

| Sequence | switch fluorescence ratio |
| --- | --- |
| AGTTTCTAGT | 0.97 ± 0.043 |
| AGTTTGATGG | 0.99 ± 0.087 |
| AGTTTGCGGC | 0.94 ± 0.039 |
| AGTTTGGGAA | 1 ± 0.018 |
| AGTTTGGGTA | 0.9959 ± 0.008 |
| AGTTTGGGTC | 0.984 ± 0.057 |
| AGTTTGGTGC | 1.05 ± 0.027 |
| AGTTTGTTCG | 0.953 ± 0.022 |
| AGTTTTACAG | 1.01 ± 0.02 |
| AGTTTTGCTC | 0.981 ± 0.012 |
| AGTTTTTATA | 1.002 ± 0.0012 |
| AGTTTTTGTC | 0.953 ± 0.048 |
| AGTTTTTTTC | 1.02 ± 0.023 |
| ATAAAAAAGG | 1.01 ± 0.017 |
| ATAAAAACAT | 1 ± 0.027 |
| ATAAAACATG | 0.9785 ± 0.0055 |
| ATAAAATAAA | 0.976 ± 0.031 |
| ATAAACCGGG | 1.02 ± 0.043 |
| ATAAAGACTT | 0.9755 ± 0.0058 |
| ATAAAGCAGT | 1.02 ± 0.048 |
| ATAAAGCTTA | 1 ± 0.03 |
| ATAAAGGGTT | 0.9936 ± 0.009 |
| ATAAATGGGC | 0.972 ± 0.014 |
| ATAAATGGGT | 0.9945 ± 0.0025 |
| ATAAATTGCA | 0.998 ± 0.02 |

| Sequence | switch fluorescence ratio |
| --- | --- |
| ATAAATTTTC | 0.951 ± 0.043 |
| ATAACCAGTT | 0.988 ± 0.014 |
| ATAACCCTTT | 1.12 ± 0.18 |
| ATAACCGTAC | 2.46 ± 0.27 |
| ATAACGCTCG | 1 ± 0.018 |
| ATAACGGAGG | 0.9773 ± 0.0088 |
| ATAACGGGGG | 1 ± 0.033 |
| ATAACGTACT | 1.84 ± 0.18 |
| ATAACTCGGA | 1 ± 0.0019 |
| ATAAGAAACG | 0.946 ± 0.064 |
| ATAAGAACCG | 1.07 ± 0.017 |
| ATAAGACGTT | 1.01 ± 0.041 |
| ATAAGACTCT | 0.9964 ± 0.0081 |
| ATAAGATTTT | 1.01 ± 0.048 |
| ATAAGCAGGA | 1.02 ± 0.017 |
| ATAAGCATGT | 1.02 ± 0.034 |
| ATAAGCATTA | 1.05 ± 0.11 |
| ATAAGCCCCG | 0.993 ± 0.049 |
| ATAAGCGTTC | 1.04 ± 0.0013 |
| ATAAGGGCTT | 0.929 ± 0.11 |
| ATAAGGTCAA | 0.995 ± 0.047 |
| ATAAGGTCGT | 1.02 ± 0.039 |
| ATAAGGTTTT | 0.985 ± 0.014 |
| ATAAGTGGTT | 0.995 ± 0.026 |
| ATAAGTTAAA | 1.07 ± 0.12 |

| Sequence | switch fluorescence ratio |
| --- | --- |
| ATAAGTTGGG | 0.968 ± 0.024 |
| ATAATAGATA | 1.01 ± 0.038 |
| ATAATAGGGT | 0.972 ± 0.03 |
| ATAATAGTTG | 1.02 ± 0.018 |
| ATAATCCTTG | 1.01 ± 0.005 |
| ATAATGCAGC | 0.988 ± 0.019 |
| ATAATGGAGT | 0.983 ± 0.066 |
| ATAATGGGTT | 1.05 ± 0.058 |
| ATAATGTAGC | 1.04 ± 0.036 |
| ATAATTATGT | 1 ± 0.018 |
| ATAATTCGGC | 0.984 ± 0.022 |
| ATAATTGTCT | 1.04 ± 0.04 |
| ATAATTTGGT | 0.982 ± 0.038 |
| ATAATTTTAT | 1.08 ± 0.13 |
| ATACCAGGTT | 1.18 ± 0.063 |
| ATACCCTAGC | 1.09 ± 0.014 |
| ATACCGAAGT | 1.17 ± 0.18 |
| ATACCGAGTG | 0.991 ± 0.029 |
| ATACCTGAGT | 1.21 ± 0.034 |
| ATACGAACGT | 0.9928 ± 0.0019 |
| ATACGCGGGC | 1.27 ± 0.038 |
| ATACGCTTTT | 1.14 ± 0.14 |
| ATACGGAAAA | 1.046 ± 0.004 |
| ATACGGATGC | 1.06 ± 0.025 |
| ATACGGCATG | 1.08 ± 0.011 |

| Sequence | switch fluorescence ratio |
| --- | --- |
| ATACGGGAAG | 1.05 ± 0.031 |
| ATACGGGTAG | 0.9821 ± 0.0052 |
| ATACGGTAGG | 1.006 ± 0.01 |
| ATACGTGGGA | 1.01 ± 0.032 |
| ATACTAAGTG | 1.01 ± 0.02 |
| ATACTCAGTG | 1.069 ± 0.0084 |
| ATACTCATAT | 1.01 ± 0.015 |
| ATACTGAATT | 1.005 ± 0.0065 |
| ATACTGAGTT | 1.05 ± 0.042 |
| ATACTTACCG | 1.223 ± 0.0077 |
| ATACTTATAT | 1.038 ± 0.0097 |
| ATACTTGGCT | 0.992 ± 0.02 |
| ATACTTTTGG | 1 ± 0.011 |
| ATAGAAAGGG | 1.02 ± 0.063 |
| ATAGAAGAAA | 1.02 ± 0.047 |
| ATAGACAGCA | 1.01 ± 0.025 |
| ATAGACGTTT | 0.994 ± 0.053 |
| ATAGAGATGT | 0.978 ± 0.018 |
| ATAGAGCGCT | 0.988 ± 0.023 |
| ATAGAGGGGT | 1.01 ± 0.023 |
| ATAGAGGGTG | 1.05 ± 0.071 |
| ATAGAGGTGA | 1.019 ± 0.0022 |
| ATAGATAGGG | 0.969 ± 0.021 |
| ATAGATCGCA | 1.02 ± 0.018 |
| ATAGATGATC | 1 ± 0.031 |

| Sequence | switch fluorescence ratio |
| --- | --- |
| ATAGCATTAT | 1.14 ± 0.026 |
| ATAGCTTGGC | 1.011 ± 0.0047 |
| ATAGGAGAGT | 1.003 ± 0.0091 |
| ATAGGAGGTG | 1.07 ± 0.019 |
| ATAGGATAGT | 0.976 ± 0.015 |
| ATAGGCGTGC | 1 ± 0.011 |
| ATAGGGAGGT | 1.01 ± 0.032 |
| ATAGGGATGG | 0.9829 ± 0.0035 |
| ATAGGGCAGC | 1.03 ± 0.04 |
| ATAGGGGCTA | 0.988 ± 0.02 |
| ATAGGGGCTC | 0.988 ± 0.021 |
| ATAGGGTGCT | 1.04 ± 0.027 |
| ATAGGTAGGC | 1.05 ± 0.072 |
| ATAGGTCTAT | 1.04 ± 0.065 |
| ATAGGTGGCG | 1.01 ± 0.038 |
| ATAGTAGTGG | 1.003 ± 0.0081 |
| ATAGTATAGA | 1.01 ± 0.047 |
| ATAGTATTTT | 0.995 ± 0.025 |
| ATAGTCCACC | 1.014 ± 0.0072 |
| ATAGTCCATA | 0.991 ± 0.015 |
| ATAGTCCCTA | 1.01 ± 0.0019 |
| ATAGTCGCCC | 1.009 ± 0.0031 |
| ATAGTCGCGC | 0.993 ± 0.058 |
| ATAGTGAAGT | 0.982 ± 0.019 |
| ATAGTTAAAC | 1.01 ± 0.012 |

| Sequence | switch fluorescence ratio |
| --- | --- |
| ATAGTTTG | 0.97739 ± 0.00022 |
| ATATAAGCGG | 1.02 ± 0.047 |
| ATATAATGAT | 1.02 ± 0.02 |
| ATATAATTTG | 1.04 ± 0.055 |
| ATATACGAGT | 1.002 ± 0.005 |
| ATATACGGTA | 1.15 ± 0.03 |
| ATATAGAGGG | 0.9958 ± 0.0031 |
| ATATAGGATT | 0.9893 ± 0.0068 |
| ATATAGTTGT | 0.999 ± 0.016 |
| ATATATGAAA | 0.998 ± 0.024 |
| ATATATGTAA | 0.994 ± 0.023 |
| ATATATGTAC | 1.085 ± 0.0016 |
| ATATATTAAA | 0.981 ± 0.03 |
| ATATCATGTT | 0.995 ± 0.036 |
| ATATCCGGTT | 1 ± 0.041 |
| ATATCCGTCA | 1.05 ± 0.051 |
| ATATCCTTCA | 1.35 ± 0.43 |
| ATATCGGTGT | 0.991 ± 0.029 |
| ATATCGTATT | 1 ± 0.013 |
| ATATCTAGTT | 0.989 ± 0.084 |
| ATATCTATGG | 0.994 ± 0.025 |
| ATATCTGCTT | 0.978 ± 0.035 |
| ATATGACTTT | 1.01 ± 0.052 |
| ATATGAGGGA | 1.01 ± 0.026 |
| ATATGAGTTT | 1.01 ± 0.017 |

| Sequence | switch fluorescence ratio |
| --- | --- |
| ATATGATATC | 1.03 ± 0.062 |
| ATATGCAGGG | 0.993 ± 0.00024 |
| ATATGCGATG | 0.97 ± 0.051 |
| ATATGCGGGC | 1.02 ± 0.05 |
| ATATGCGTCG | 0.95 ± 0.027 |
| ATATGGACGC | 1.01 ± 0.046 |
| ATATGGCACT | 1.008 ± 0.0034 |
| ATATGGGAAG | 1 ± 0.048 |
| ATATGGGAGG | 0.969 ± 0.016 |
| ATATGGGGAC | 1.01 ± 0.024 |
| ATATGTATCA | 1.06 ± 0.033 |
| ATATGTGGAG | 0.987 ± 0.011 |
| ATATTATCAA | 1 ± 0.012 |
| ATATTATTAA | 0.975 ± 0.014 |
| ATATTCGCAC | 1.19 ± 0.063 |
| ATATTCGCGG | 1.01 ± 0.015 |
| ATATTCTGAA | 0.976 ± 0.017 |
| ATATTGAAAT | 1.01 ± 0.033 |
| ATATTGAGCT | 0.976 ± 0.022 |
| ATATTGATAT | 1.01 ± 0.021 |
| ATATTGGAAG | 1.011 ± 0.01 |
| ATATTGGAAT | 1.02 ± 0.024 |
| ATATTGGGAG | 0.99 ± 0.025 |
| ATATTGGGGG | 0.998 ± 0.025 |
| ATATTGTCAT | 0.962 ± 0.015 |

| Sequence | switch fluorescence ratio |
| --- | --- |
| ATATTTATTG | 0.998 ± 0.04 |
| ATATTTGCTT | 1 ± 0.025 |
| ATATTTGTAT | 1 ± 0.012 |
| ATATTTGTCA | 1.03 ± 0.022 |
| ATCAAATATG | 1.01 ± 0.008 |
| ATCAAATGTA | 0.981 ± 0.024 |
| ATCAAGGACG | 1.02 ± 0.05 |
| ATCAATCCTT | 1.03 ± 0.029 |
| ATCAATGAAC | 1.05 ± 0.018 |
| ATCACAATCA | 1.02 ± 0.023 |
| ATCACACATT | 1.02 ± 0.032 |
| ATCACGTGAT | 1.01 ± 0.023 |
| ATCACTTGAC | 1.104 ± 0.0078 |
| ATCAGCGCGG | 1.013 ± 0.0027 |
| ATCAGGGCAA | 1.26 ± 0.18 |
| ATCATAATGT | 0.983 ± 0.032 |
| ATCATCTTCG | 1.02 ± 0.015 |
| ATCATGCGGG | 0.99749 ± 7e-05 |
| ATCATGGCAC | 1.04 ± 0.025 |
| ATCATGGCTT | 1.03 ± 0.011 |
| ATCATGGGGG | 0.986 ± 0.022 |
| ATCATGGTGC | 1.13 ± 0.074 |
| ATCATGTCTA | 1.04 ± 0.047 |
| ATCATGTTAT | 0.986 ± 0.011 |
| ATCATTCGGT | 0.9964 ± 0.0074 |
